From doi:10.1101/2025.07.02.662585 (bioRxiv, 2025) come the findings set out here.

The experiment has as its target Tor2 (yeast (endogenous in yeast cells), UniProt P32600 1-2474). The experiment can be described thus: cryo-EM structure.

Sequence of Tor2 (P32600 whole entry): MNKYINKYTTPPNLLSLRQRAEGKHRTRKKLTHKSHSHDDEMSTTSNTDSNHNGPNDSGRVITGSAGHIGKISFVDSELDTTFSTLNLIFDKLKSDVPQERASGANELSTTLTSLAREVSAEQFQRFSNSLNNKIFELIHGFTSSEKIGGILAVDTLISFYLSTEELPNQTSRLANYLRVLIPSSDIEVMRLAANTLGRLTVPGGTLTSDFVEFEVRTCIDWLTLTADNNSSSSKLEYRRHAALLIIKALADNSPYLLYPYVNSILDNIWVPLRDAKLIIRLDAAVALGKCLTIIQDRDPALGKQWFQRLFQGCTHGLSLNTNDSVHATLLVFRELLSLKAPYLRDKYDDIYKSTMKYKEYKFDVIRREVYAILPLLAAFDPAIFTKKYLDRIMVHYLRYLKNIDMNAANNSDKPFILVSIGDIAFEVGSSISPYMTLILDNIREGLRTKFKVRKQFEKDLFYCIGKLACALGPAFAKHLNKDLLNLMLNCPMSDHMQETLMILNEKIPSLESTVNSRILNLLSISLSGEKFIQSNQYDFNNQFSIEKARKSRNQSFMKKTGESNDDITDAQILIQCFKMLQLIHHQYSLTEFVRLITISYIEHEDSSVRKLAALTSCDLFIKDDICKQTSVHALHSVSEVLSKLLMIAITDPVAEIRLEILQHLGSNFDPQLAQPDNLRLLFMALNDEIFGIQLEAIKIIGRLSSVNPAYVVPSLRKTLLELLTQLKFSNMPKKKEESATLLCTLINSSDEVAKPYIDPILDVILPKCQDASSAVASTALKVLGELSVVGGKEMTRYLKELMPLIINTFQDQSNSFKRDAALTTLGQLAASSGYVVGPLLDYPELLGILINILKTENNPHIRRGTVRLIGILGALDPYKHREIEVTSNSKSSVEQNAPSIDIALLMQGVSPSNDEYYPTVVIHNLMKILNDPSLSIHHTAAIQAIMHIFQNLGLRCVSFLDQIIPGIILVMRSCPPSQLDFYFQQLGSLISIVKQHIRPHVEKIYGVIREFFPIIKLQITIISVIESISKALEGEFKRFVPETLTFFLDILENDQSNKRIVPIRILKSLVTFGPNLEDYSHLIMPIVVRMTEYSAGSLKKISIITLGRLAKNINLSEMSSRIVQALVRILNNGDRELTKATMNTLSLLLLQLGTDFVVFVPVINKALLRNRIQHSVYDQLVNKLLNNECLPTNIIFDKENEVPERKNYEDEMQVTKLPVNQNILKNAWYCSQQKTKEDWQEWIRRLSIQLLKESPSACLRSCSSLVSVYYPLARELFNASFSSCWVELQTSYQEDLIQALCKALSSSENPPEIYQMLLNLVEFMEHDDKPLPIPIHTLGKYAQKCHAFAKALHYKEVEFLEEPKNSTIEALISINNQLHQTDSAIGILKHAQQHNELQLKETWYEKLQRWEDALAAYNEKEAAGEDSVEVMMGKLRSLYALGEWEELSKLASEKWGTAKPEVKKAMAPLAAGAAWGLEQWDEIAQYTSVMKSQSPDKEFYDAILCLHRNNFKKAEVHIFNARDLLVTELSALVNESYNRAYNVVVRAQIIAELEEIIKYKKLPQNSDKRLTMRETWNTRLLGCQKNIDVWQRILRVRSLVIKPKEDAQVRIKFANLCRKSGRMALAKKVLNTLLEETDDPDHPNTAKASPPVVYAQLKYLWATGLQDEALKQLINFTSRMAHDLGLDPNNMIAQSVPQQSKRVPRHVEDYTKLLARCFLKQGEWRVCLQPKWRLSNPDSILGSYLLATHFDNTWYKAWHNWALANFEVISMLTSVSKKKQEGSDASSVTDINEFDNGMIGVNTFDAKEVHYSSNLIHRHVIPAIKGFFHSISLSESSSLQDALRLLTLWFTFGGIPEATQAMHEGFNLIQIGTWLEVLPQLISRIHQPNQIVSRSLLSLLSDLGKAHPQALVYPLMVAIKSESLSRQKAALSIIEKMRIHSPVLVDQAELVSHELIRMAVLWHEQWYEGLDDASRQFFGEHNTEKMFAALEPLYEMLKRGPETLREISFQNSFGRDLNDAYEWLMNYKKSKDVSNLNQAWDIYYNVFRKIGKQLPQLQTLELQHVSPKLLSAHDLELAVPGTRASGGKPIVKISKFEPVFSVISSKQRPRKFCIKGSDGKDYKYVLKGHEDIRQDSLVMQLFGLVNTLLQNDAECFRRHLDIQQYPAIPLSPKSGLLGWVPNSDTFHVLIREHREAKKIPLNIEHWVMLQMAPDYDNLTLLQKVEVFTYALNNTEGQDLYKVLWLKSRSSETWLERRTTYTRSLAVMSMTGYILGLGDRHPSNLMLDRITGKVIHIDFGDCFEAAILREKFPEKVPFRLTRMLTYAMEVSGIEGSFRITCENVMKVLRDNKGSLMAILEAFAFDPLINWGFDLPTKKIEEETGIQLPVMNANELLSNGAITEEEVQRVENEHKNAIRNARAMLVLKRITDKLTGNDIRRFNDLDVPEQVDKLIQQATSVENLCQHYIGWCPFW

B1: Lst8 (natural protein)
chain: MSVILVSAGYDHTIRFWEALTGVCSRTIQHSDSQVNRLEITNDKKLLATAGHQNVRLYDIRTTNPNPVASFEGHRGNVTSVSFQQDNRWMVTSSEDGTIKVWDVRSPSIPRNYKHNAPVNEVVIHPNQGELISCDRDGNIRIWDLGENQCTHQLTPEDDTSLQSLSMASDGSMLAAANTKGNCYVWEMPNHTDASHLKPVTKFRAHSTYITRILLSSDVKHLATCSADHTARVWSIDDDFKLETTLDGHQRWVWDCAFSADSAYLVTASSDHYVRLWDLSTREIVRQYGGHHKGAVCVALNDV
In the case of B1, the binding result is given as “binds”.

B2: Avo2 (natural protein)
chain: MLKEPSVRLREAIIEGNLLIVKRLLRRNPDLLTNIDSENGWSSLHYASYHGRYLICVYLIQLGHDKHELIKTFKGNTCVHLALMKGHEQTLHLLLQQFPRFINHRGENGRAPIHIACMNDYYQCLSLLIGVGADLWVMDTNGDTPLHVCLEYGSISCMKMLLNEGEVSLDDNVRDKGNWKPIDVAQTFEVGNIYSKVLKEVKKKGPPLGAGKKPSSFRTPILNAKATFEDGPSPVLSMNSPYSLYSNNSPLPVLPRRISTHTTSGNGGNRRSSITNPVFNPRKPTLSTDSFSSSSNSSSRLRVNSINVKTPVGVSPKKELVSESVRHSATPTSPHNNIALINRYLLPNKSNDNVRGDSQTATINDDGGGGNGGDATIGMGLRKDPDDENENKYKIKVNNGEPRRRVSLLNIPISKLRNSNNTRAED
On to B2, for which the binding result is listed as “binds”.
